Data: EP1736545A2

Columns and labels:
IL-TIF protein (human) = IL-TIF protein (human) (UniProt Q9GZX6); assay: cell-based or functional assay
[1] = target: zcytor11 and CRF2-4 receptors co-expressed on transfected BaF3 or BHK cells (human) (UniProt Q08334); assay: cell-based or functional assay
zcytor11 and CRF2-4 receptors co-expressed on transfected BaF3 or BHK cells (human), sequence (chain, as listed by the source limits assumed, form in doubt, chain 1 of 2): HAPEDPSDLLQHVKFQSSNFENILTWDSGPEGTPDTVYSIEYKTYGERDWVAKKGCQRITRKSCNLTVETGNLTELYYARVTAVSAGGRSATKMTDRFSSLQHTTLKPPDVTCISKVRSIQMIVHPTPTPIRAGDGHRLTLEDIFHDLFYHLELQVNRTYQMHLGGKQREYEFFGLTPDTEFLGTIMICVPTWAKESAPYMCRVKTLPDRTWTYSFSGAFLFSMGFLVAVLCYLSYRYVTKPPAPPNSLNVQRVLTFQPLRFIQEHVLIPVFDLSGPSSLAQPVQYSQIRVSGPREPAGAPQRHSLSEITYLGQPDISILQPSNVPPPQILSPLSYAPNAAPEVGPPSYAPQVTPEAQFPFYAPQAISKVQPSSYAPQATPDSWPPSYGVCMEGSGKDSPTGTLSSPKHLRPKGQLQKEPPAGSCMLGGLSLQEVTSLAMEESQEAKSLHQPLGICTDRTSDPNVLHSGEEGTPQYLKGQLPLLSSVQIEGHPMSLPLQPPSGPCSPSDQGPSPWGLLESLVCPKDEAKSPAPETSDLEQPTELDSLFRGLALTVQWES
zcytor11 and CRF2-4 receptors co-expressed on transfected BaF3 or BHK cells (human), sequence (Q08334 20-325 limits assumed, form in doubt, chain 2 of 2): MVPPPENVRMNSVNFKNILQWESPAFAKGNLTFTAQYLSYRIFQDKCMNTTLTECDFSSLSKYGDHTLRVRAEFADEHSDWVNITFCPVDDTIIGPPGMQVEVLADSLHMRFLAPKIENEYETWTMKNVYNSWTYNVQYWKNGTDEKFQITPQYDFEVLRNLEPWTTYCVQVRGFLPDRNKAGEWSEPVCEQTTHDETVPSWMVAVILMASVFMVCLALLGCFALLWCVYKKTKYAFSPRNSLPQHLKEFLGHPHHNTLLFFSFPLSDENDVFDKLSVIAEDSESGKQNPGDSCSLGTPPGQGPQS

IL-TIF protein (human), sequence (Q9GZX6 34-179 limits assumed, form in doubt): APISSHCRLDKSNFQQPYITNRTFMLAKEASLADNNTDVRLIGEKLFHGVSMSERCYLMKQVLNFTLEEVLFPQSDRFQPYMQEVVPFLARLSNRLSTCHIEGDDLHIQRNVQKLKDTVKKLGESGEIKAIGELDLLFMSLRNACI

inhibition of IL-TIF-induced proliferation of BaF3/CRF2-4/zcytor11 cells (Alamar Blue): concentration at which inhibition was barely detectable (IL-TIF protein (human)) | inhibition of IL-TIF-induced proliferation of BaF3/CRF2-4/zcytor11 cells (Alamar Blue): concentrations giving complete inhibition (IL-TIF protein (human)) | inhibition of IL-TIF-induced proliferation of BaF3/CRF2-4/zcytor11 cells (Alamar Blue): concentrations giving partial inhibition (IL-TIF protein (human)) | proliferation of BaF3/CRF2-4/zcytor11 cells (Alamar Blue), IL-TIF at 100 pg/ml (fold over background) [1] | Substance
1.6 ng/mL | 25 to 200 ng/mL | 3.1 to 12.5 ng/mL |  | CRF2-4/zcytor11-Fc soluble receptor heterodimer (Fc fusion)
 |  |  | 30 | IL-TIF protein (from UniProt Q9GZX6 34-179) (ligand)
